Assay results from US20170349886A1 (VEGENICS, published 2017).
Numbering of substitutions follows the chain as printed. Like-named read-outs stand apart in the source and are kept apart here.

B1: VGX-300 (Fc fusion)
chain: YSMTPPTLNITEESHVIDTGDSLSISCRGQHPLEWAWPGAQEAPATGDKDSEDTGVVRDCEGTDARPYCKVLLLHEVHANDTGSYVCYYKYIKARIEGTTAASSYVFVRDFEQPFINKPDTLLVNRKDAMWVPCLVSIPGLNVTLRSQSSVLWPDGQEVVWDDRRGMLVSTPLLHDALYLQCETTWGDQDFLSNPFLVHITGNELYDIQLLPRKSLELLVGEKLVLNCTVWAEFNSGVTFDWDYPGKQAERGKWVPERRSQQTHTELSSILTIHNVSQHDLGSYVCKANNGIQRFRESTEVIVHE
notes: only Ig-like domains I-III were in the molecule; Produced by transient expression in CHO or HEK cells; also called Parent; VGX-300 parent; not shown: Fc region gamma chain (detected with anti-human IgG)
B2: Human VEGF-C (ligand, UniProt P49767 103-227, looked up)
chain: TEETIKFAAAHYNTEILKSIDNEWRKTQCMPREVCIDVGKEFGVATNTFFKPPCVSVYRCGGCCNSEGLQCMNTSTSYLSKTLFEITVPLSQGPKPVTISFANHTSCRCMSKLDVYRQVHSIIRR
notes: also called VEGF-C ligand
B3: VGX-301-ΔN2 (Fc fusion)
chain: B1 chain with N80Q
notes: also called N2 mutant; not shown: Fc region gamma chain as in VGX-300
B4: Human VEGF-D (ligand, UniProt O43915 93-201, looked up)
chain: FYDIETLKVIDEEWQRTQCSPRETCVEVASELGKSTNTFFKPPCVNVFRCGGCCNEESLICMNTSTSYISKQLFEISVPLTSVPELVPVKVANHTGCKCLPTAPRHPYS
notes: also called VEGF-D ligand

How the values were obtained:
Human VEGF-D [1] = target: B4; experiment: cell-based or functional assay
Human VEGF-C [2] = target: B2; experiment: cell-based or functional assay
Human VEGF-C [3] = target: B2; experiment: ELISA on plate-coated VEGF-C (2 µg/mL), anti-human IgG-HRP detection; sigmoidal fit of the curve of FIG. 2A
Human VEGF-D [4] = target: B4; experiment: cell-based or functional assay; remark: listed apart in the source
Human VEGF-D [5] = target: B4; experiment: ELISA on plate-coated VEGF-D (2 µg/mL), anti-human IgG-HRP detection; sigmoidal fit of the curve of FIG. 2A
Human VEGF-C [6] = target: B2; experiment: cell-based or functional assay; remark: listed apart in the source
Human VEGF-D [7] = target: B4; experiment: cell-based or functional assay; remark: listed apart in the source
Human VEGF-C [8] = target: B2; experiment: cell-based or functional assay; remark: listed apart in the source
VGX-301-ΔN2 = target: B3; experiment: SPR, ProteOn XPR36; trap captured on protein G' on a GLM chip, ligand as analyte
Excerpt: (§1) The results of the affinity experiment are provided below in Table 5.

VGX-300 = target: B1; experiment: as above
Excerpt: as §1

| IC50 (read off the curve); VEGF-D-driven proliferation (WST-1) of Ba/F3 cells with the VEGFR-3 ECD/EpoR chimeric receptor (Human VEGF-D [1]) [µg/mL] | IC50 (read off the curve); VEGF-C-driven proliferation (WST-1) of Ba/F3 cells with the VEGFR-3 ECD/EpoR chimeric receptor (Human VEGF-C [2]) [µg/mL] | EC50 (Human VEGF-C [3]) [µg/mL] | IC50 (read off the curve); VEGF-D-driven proliferation (WST-1) of Ba/F3 cells with the VEGFR-3 ECD/EpoR chimeric receptor (Human VEGF-D [4]) [µg/mL] | EC50 (Human VEGF-D [5]) [µg/mL] | IC50 (read off the curve); VEGF-C-driven proliferation (WST-1) of Ba/F3 cells with the VEGFR-3 ECD/EpoR chimeric receptor (Human VEGF-C [6]) [µg/mL] | IC50 (read off the curve); VEGF-D-driven proliferation (WST-1) of Ba/F3 cells with the VEGFR-2 ECD/EpoR chimeric receptor (Human VEGF-D [7]) [µg/mL] | IC50 (read off the curve); VEGF-C-driven proliferation (WST-1) of Ba/F3 cells with the VEGFR-2 ECD/EpoR chimeric receptor (Human VEGF-C [8]) [µg/mL] | Kd (VGX-301-ΔN2) [nM] | koff (VGX-301-ΔN2) [s⁻¹] | kon (VGX-301-ΔN2) [M⁻¹ s⁻¹] | Kd (VGX-300) [nM] | koff (VGX-300) [s⁻¹] | kon (VGX-300) [M⁻¹ s⁻¹] | Binder |
| --- | --- | --- | --- | --- | --- | --- | --- | --- | --- | --- | --- | --- | --- | --- |
| ~0.4 | ~0.01 | 0.058 | ~0.5 | 0.504 | ~0.007 | ~3 | ~0.02 | – | – | – | – | – | – | B1 |
| – | – | – | – | – | – | – | – | 0.0037 | 1.03e-05 | 2.79e+06 | 0.0051 | 1.11e-05 | 2.18e+06 | B2 |
| – | – | 0.0295 | ~0.3 | 0.105 | ~0.005 | – | – | – | – | – | – | – | – | B3 |
| – | – | – | – | – | – | – | – | 0.677 | – | – | 0.625 | – | – | B4 |
